The values that follow come from US20070259824A1 (TOUDAI TLO, published 2007).

The target in test [1] is T1, CD26 in J.CD26 cell lysate (Jurkat T cells with stable expression of CD26) (UniProt P27487 1-766).
T1 construct: Whole CD26 from transfected cells, used as lysate in the GST pull-down; also called CD26 transfected Jurkat T cells
Briefly: GST pull-down from J.CD26 lysate, immunoblot with anti-CD26. In general terms: Immunoblotting shows a protein as a band on a membrane.

Test [2] concerns the target T2, CD26 on activated T cells (human, UniProt P27487 1-766).
T2 construct: whole, on cells; also called CD26 on T cells
In words: T cell-monocyte conjugates, confocal microscopy.

In test [3] the target is T3, GST-CD26 D1 (residues 507-766) (UniProt P27487 507-766).
T3 construct: Produced in COS-7 cells, on GSH beads; not shown: GST of mammalian vector pEBG
T3 sequence (P27487 507-766): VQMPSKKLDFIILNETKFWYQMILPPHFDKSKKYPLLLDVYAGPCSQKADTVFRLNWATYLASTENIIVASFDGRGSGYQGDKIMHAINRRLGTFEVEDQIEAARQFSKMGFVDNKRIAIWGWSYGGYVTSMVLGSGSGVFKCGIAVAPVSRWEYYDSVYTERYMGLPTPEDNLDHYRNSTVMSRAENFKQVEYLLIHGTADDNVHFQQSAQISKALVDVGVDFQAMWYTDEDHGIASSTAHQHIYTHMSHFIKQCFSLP
Briefly: GST pull-down from THP-1 lysate, immunoblot with anti-caveolin-1.

For test [4], the target named is T4, GST-CD26 D2 (residues 267-584) (UniProt P27487 267-584).
T4 construct: range 267-584; Produced in COS-7 cells, on GSH beads; not shown: GST of mammalian vector pEBG
T4 sequence (P27487 267-584): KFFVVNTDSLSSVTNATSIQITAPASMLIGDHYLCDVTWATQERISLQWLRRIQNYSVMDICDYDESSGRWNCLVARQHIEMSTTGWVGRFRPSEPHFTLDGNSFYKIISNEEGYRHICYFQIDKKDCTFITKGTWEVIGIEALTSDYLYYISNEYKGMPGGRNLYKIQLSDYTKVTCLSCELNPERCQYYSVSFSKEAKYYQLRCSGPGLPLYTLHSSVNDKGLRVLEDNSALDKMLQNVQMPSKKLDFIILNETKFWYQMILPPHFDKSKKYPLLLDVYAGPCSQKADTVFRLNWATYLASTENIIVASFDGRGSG
The description is as above.

In test [5] the target is MyD88 (in TT-loaded monocytes) (human, UniProt Q99836 1-296). Briefly: immunoprecipitation with anti-caveolin-1 pAb from TT-loaded monocytes.
Chain of MyD88 (in TT-loaded monocytes) (Q99836 whole entry): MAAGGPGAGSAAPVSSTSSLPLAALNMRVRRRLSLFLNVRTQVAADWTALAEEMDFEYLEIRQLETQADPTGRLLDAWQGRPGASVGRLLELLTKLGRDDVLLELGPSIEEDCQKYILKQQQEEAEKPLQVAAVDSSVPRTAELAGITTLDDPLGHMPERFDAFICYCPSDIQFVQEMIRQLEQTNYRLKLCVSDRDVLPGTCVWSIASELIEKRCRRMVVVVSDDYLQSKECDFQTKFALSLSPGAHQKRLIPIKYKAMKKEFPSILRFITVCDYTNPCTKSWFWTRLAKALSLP
Test [6] concerns the target T5, IRAK-4 (in TT-loaded monocytes) (human, UniProt Q9NWZ3 1-460).
T5 sequence: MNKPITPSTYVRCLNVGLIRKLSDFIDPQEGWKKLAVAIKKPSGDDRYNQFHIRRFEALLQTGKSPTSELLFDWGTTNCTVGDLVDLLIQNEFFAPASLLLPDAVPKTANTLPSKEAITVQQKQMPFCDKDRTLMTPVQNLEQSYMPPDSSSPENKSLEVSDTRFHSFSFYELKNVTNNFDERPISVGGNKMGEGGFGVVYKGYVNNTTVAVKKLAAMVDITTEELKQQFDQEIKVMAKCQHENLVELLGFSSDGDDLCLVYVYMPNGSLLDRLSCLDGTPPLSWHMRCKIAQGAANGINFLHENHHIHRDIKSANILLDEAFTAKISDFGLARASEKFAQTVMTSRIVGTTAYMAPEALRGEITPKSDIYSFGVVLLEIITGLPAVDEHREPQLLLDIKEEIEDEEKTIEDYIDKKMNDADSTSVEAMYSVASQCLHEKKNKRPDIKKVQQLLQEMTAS
Described as above.

For test [7], the target named is endogenous Tollip (THP-1 cells, monocytes) (human, UniProt Q9H0E2 2-274). Briefly: immunoprecipitation with anti-caveolin-1 pAb from TT-loaded monocytes, immunoblot with anti-Tollip.
Test [8] addresses T6, recombinant soluble CD26 (rsCD26 wt) (UniProt P27487 29-766, limits assumed).
T6 construct: extracellular domain; Used free, conjugated with Texas red, or coated on latex beads; also called sCD26-TR; CD26-TR
In words: confocal microscopy of transfected HEK293 cells.

The target in test [9] is T7, GFP-fused wild type CD26 (CD26 wt-GFP) on transfected HEK293 cells (UniProt P27487 1-766).
T7 construct: also called CD26-EGFP; GFP-CD26 wt; not shown: EGFP of vector pEB6-CAG-EGFP (engineered variant of Aequorea victoria GFP)
T7 sequence (P27487 whole entry, the tested form may be a part): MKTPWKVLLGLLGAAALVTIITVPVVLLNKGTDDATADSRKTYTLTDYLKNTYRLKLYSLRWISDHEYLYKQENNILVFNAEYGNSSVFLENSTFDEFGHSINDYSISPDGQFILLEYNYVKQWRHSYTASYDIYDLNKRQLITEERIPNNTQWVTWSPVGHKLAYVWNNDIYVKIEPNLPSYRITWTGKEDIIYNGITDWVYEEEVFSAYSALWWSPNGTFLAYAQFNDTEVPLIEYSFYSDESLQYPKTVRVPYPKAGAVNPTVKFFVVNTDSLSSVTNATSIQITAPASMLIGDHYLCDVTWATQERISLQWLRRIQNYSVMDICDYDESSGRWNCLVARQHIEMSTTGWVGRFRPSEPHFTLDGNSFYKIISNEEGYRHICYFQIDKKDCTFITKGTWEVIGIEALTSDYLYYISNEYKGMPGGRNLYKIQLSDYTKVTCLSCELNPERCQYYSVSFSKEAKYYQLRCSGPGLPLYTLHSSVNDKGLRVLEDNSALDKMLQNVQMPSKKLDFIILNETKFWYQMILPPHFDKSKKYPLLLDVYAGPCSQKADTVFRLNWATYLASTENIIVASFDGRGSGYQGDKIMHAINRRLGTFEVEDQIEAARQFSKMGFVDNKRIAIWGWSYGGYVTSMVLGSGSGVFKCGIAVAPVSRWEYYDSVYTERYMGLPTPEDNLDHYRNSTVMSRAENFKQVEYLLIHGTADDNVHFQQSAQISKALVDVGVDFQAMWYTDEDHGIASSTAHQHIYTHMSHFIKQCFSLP
Briefly: confocal microscopy of transfected HEK293 cells.

Test [10] deals with T8, CD26 S630A-GFP on transfected HEK293 cells (UniProt P27487 1-766).
T8 construct: also called DPPIV activity-deleted mutant (S630A); not shown: EGFP of vector pEB6-CAG-EGFP
T8 sequence (P27487 whole entry S630A): as the sequence (P27487 whole entry, the tested form may be a part) above, with S630A counted along it
Briefly: confocal microscopy of transfected HEK293 cells.

T1 sequence (P27487 whole entry): as the sequence (P27487 whole entry, the tested form may be a part) above
T2 sequence (P27487 whole entry): as the sequence (P27487 whole entry, the tested form may be a part) above
T6 sequence (P27487 29-766 limits assumed): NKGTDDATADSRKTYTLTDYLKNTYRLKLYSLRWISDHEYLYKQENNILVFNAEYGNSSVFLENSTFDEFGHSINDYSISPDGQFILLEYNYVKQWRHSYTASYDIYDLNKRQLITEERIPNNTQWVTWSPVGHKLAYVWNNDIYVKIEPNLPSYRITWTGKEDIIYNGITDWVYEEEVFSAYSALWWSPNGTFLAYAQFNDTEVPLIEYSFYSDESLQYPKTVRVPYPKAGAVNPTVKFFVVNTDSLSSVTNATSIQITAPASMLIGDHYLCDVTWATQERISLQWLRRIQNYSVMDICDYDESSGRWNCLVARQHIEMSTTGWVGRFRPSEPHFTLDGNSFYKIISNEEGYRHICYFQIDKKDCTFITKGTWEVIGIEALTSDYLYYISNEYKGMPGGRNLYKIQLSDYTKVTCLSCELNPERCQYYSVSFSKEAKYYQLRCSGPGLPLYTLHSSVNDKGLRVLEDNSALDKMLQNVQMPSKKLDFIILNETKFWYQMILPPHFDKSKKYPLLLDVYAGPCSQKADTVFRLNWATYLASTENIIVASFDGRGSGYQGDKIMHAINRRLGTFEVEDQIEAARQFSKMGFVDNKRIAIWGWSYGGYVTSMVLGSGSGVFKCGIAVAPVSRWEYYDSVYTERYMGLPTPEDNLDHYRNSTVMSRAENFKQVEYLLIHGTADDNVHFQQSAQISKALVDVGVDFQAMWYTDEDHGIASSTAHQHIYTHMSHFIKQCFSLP

B1: GST-Cav-1 (102-178) (other, UniProt Q03135 102-178, looked up)
chain: LLSALFGIPMALIWGIYFAILSFLHIWAVVPCIKSFLIEIQCISRVYSIYVHTVCDPLFEAVGKIFSNVRINLQKEI
notes: range 102-178; not shown: GST of vector pGEX6p1
On to B1, for which the binding result in test [1] is recorded as “no binding”.

B2: caveolin-1 on the cell surface of TT-loaded monocytes (other)
chain: SGGKYVDSEGHLYTVPIREQGNIYKPNNKAMADELSEKQVYDAHTKEIDLVNRDPKHLNDDVVKIDFEDVIAEPEGTHSFDGIWKASFTTFTVTKYWFYRLLSALFGIPMALIWGIYFAILSFLHIWAVVPCIKSFLIEIQCISRVYSIYVHTVCDPLFEAVGKIFSNVRINLQKEI
notes: whole, on cells
Turning to B2, the binding result in [2] is recorded as “binds”.

B3: endogenous caveolin-1 (THP-1 cell lysate, monocyte lysate) (other, human, UniProt Q03135 2-178, looked up)
chain: B2 chain
notes: Endogenous whole protein from cell lysates
Consider B3, for which the binding result in test [3] is “no binding”; in test [4], “no binding”; in test [5], “no binding”; in test [6], “no binding”; in [7] it was “binds”.

B4: GFP-fused full-length caveolin-1 (caveolin-1-GFP) in transfected cells (other, UniProt Q03135 1-178, looked up)
chain: MSGGKYVDSEGHLYTVPIREQGNIYKPNNKAMADELSEKQVYDAHTKEIDLVNRDPKHLNDDVVKIDFEDVIAEPEGTHSFDGIWKASFTTFTVTKYWFYRLLSALFGIPMALIWGIYFAILSFLHIWAVVPCIKSFLIEIQCISRVYSIYVHTVCDPLFEAVGKIFSNVRINLQKEI
notes: Expressed in HEK293 cells (with sCD26-TR) or stably in THP-1 cells (with Tollip); also called caveolin-1-EGFP; GFP-caveolin-1; not shown: EGFP of vector pEB6-CAG-EGFP
Take B4: the binding result in test [8] is given as “binds”.

B5: Texas red conjugated caveolin-1 (cav-TR) (other, UniProt Q03135 1-178, looked up)
chain: B4 chain
modifications: Texas red conjugated
notes: range 1-178; also called caveolin-1 wt recombinant protein
Turning to B5, the binding result in [9] was “binds”; in [10], “no binding”.

B6: GST-Cav-1 (1-82) (other, UniProt Q03135 1-82, looked up)
chain: MSGGKYVDSEGHLYTVPIREQGNIYKPNNKAMADELSEKQVYDAHTKEIDLVNRDPKHLNDDVVKIDFEDVIAEPEGTHSFD
notes: range 1-82; not shown: GST of vector pGEX6p1
For the molecule B6, the binding result in [1] is “no binding”.
